Measurements reported in the nanobody polyreactivity screen of Harvey et al. (2022).

Assay: yeast display, Sf9 membrane polyspecificity reagent, FACS + sequencing; frameworks hold sequencing errors
Procedure, shortened: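 Synthetic nanobody libraries on Saccharomyces cerevisiae BJ5465 were galactose-induced for 36–48 hours, stained 1 hour at 4 °C with 10% biotinylated, detergent-solubilized Sf9 membrane reagent and enriched on streptavidin microbeads. FACS then separated cells into low and high (top ~1%) gates by anti-HA (expression) and streptavidin (reagent binding) fluorescence. Genes were colony-PCR amplified, MiSeq 2 × 250 sequenced and CDR-length filtered. A clone's polyreactivity label is that of its gate of origin.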

Sequence | polyreactivity (PSR sort gate)
QVQLVESGGGLVQAGGSLRVSCAASGFTLQRNTMGWYRQAPGKEREFVAAISVRGGSTYYADSVKGRFTISRDNAQNTVYLQMNSLKPEDTAVYYCAAVGRPTQYSYPYGYWGQGTQVTVSS | high polyreactivity
QVQLVESGGGLVQAGGSLRLSCAASGGIFRGYAMGWYRQAPGKERELVAAITKRGGRTYYADSVKGRFTISRDNAKNTVYLQMNSLKPEDTAVYYCAADYYAAYHLPDQDYDYWGQGTQVTVSS | high polyreactivity
QVQLVESGGGLVQAGGSLRLSCPASGSTFGPYAMGWYRQAPGKERELVATISGSGSSTYYADSVKGRFTISRDNAKNTVDLQMNSLKPEDTAFYYCATDLYFDLRYDYWGQGTQVTVSS | low polyreactivity
QVQLVESGGGLVQAGGSLRLSCAASGSTFYRNAMGWYRQAPGKERELVAGISYGGGSTYYADSVKGRFTISRDNAKNTVYLQMNSLKPEDTAVYYCYAVWVKRHYYYWGQGTQVTVSS | low polyreactivity
QVQLVESGGGLVQAGGSLRLSCAASGIILPYYAMGWYRQAPGKERELVASISQSGSSTYYADSVKGRFTISRDNAKNTVYLQMNSLKPEDTAVYYCNAKPGSWYIRYDYWGQGTQVTVSS | low polyreactivity
QVQLVESGGGLVQAGGSLRVSCAASGIIFNRYAMGWSREAPGKERELVAAITSSGGSTHYADSVKGRFTISRDNAKNTVYLQMNSLKPEDTAVYYCAKQFPYNYRYYLHYYYWGQGTQVTVSS | low polyreactivity
QVQLVESGGGLVQAGGSLRLSCAASGFTFGFYAMGWYIQAPGNERELVASITTRGGSTRYADSVKGRFTISRDNAKNTVYLQMNSLKPEDTAVYYCAAQYSYVRYLKRGYGYWGQGTQVTVSS | high polyreactivity
QVHLVESGGGLVQARGSLRLSCAASGSTIYSYARGWYRQAPGKERELVAAINRSAGSTYYADSVKGRFTISRDNAKNTVYLQMTSLKPEDTAVYYCAAYASRSYGDWGQGTQVTVSS | high polyreactivity
QVQLVESGGGLVQAGGSLRLSCAASGFIFLYAMGWYRQAPGKERELVAAISWSDTSTYYADSVKGRFTISRDNAKNTVYLQMNSLKPEDTAVYYCNAETWNYGDYDYWGQGTQVTVSS | high polyreactivity
QVQLVESGGGLVQAGGSLRLSCAASGFIFPFYAMGWYRQAPGKERELGASITWSGSTYADSVKGRFTISRDNAKNTVYLQMNSLKPEDTAVYYCNTDPRSVVGWYAYWGQGTQVTVSS | low polyreactivity
QVQLVESGGGLVQAGGSLRLSCAASGSIFGLNAMGWYRQAPGKERELVAAISVSGTRTYYADSVKGRFTISRDNAKNTGYLQMNSLKPEDTAVYYCAAYSYSSSFGYRYDYWGQGTQVTVSS | high polyreactivity
QVQRVESGGGLVQAGGSLRLSCAASGFIFDGYAMGWYRQAPGKERELVAAIDSGGDRTYYADSVKGRFTISRDNAKNTVYLLMNSLKPEDTAVYYCAADSSDPTGYEYGGQGTQVTVSS | low polyreactivity
QVQLVESGGGLVQAGGSLRLSCAASGSIFDVNAMGWYRQAPGKESELVAAISDSGGSTYYADSVKGRFTISRDNAKTTVYLQMTSLKQEDTAVYYCNADWSWYNYYDFDYWGQGTQVTVSS | low polyreactivity
QDQLVESGGGLVQAGGSLRLSCAASGFTFTRNAMGWYRQAPGKEREFVAAISVGGGRTYYADSVKGRFTISRDNAKNTVYLQMNSLKPEDTAVYYCNAYQGWRYDYWGPGTQVTVSS | high polyreactivity
QVQLVESGGGLVQAGGSLRLSCAASGRIFEYIAMGWYRQAPGKERELVAAITSDGSTNDADSVKGRFTISRDNAKNTVYLQMNSLNPEDTAVYYCNTRYSLYTKYAYYDEHDYWGQGTQVTVSS | low polyreactivity
QVQLQESAGGLVQAGGSLRLRCSASGYISCDASMGWYRQAPGKERELAASITKGSSTNYADSVKGRFTIRDNAKNTVYLQMNSLKPEDSAVCYCAVTYPYWGDYTYWGQGTQVTVSS | low polyreactivity
QVQLVESGGGLVQAGGSLRLSCAASGSTFGVNAMGWYRQAPGKERELVAAISVSGGRTYYADSVKGRFTISRDNAKNTVYLLMNSLKPEDTAVYYCAATTYIWPYDYWGQGTQVTVSS | low polyreactivity
QVQLVESGGGLVQAGGSLSLSCAASGRIFATNAMGWYRQAPGKERELVATITRSDGRTYYAVSVKGRFTISRDNAMNSVYLEMNSLKPEDTAVYFCAAYYSDTEPGYREYDYWGQGTQVTLSS | low polyreactivity
QVQLVESGGGLVQAGGSLRLSCAAYGSIFGYYAMGWYRQAPVKERALVAAITWSGDSTYYADSVKGRFTISRDNAKNTVYLQMKSLNPEDTAVYYCSARQFVHTRYFSFGYWGQGTQVTVSS | low polyreactivity
QVQLVESGGGLVQAGGSLRLSCAASGRTFRSNGMGWYRQAPGKERQLVATISEGGGSTYYADSVKGRFTISRDNAKNTVYLQMNSLKPEDTAVYYCAATVYPSVYGENHYGYWGQGTQVTVSS | high polyreactivity
QVQLVESGGGLVQAGGSHRLSCSASGSIIFYYAMGWDRQAPGKEREFVAAITRSGVRTYYADSVKGRFTISRDNAKNTVYLQMNSLKPEDTAVYYCNADYGFYRPVLMGYWGQGTQVTVSS | low polyreactivity
QVQLVESGGGLVQAGGSLRLSCAASGSTFYSYAMGWYRQAPGKERELVAAISWDGGLTYYADSVKGRFTISRDNAKNTVYLQMNSLKPEDNAVYYCAAAYPTYRHYYWGQGTQVTVSS | low polyreactivity

Sequence | polyreactivity (PSR sort gate)
QVHLVESGGGLVQAGGSLRLSSAASGRNFFNYAMGWYRQAPGKERELVAAISTGGSTTYADSVKGRFTISRDNAKNTVYLQMNSLKPEDTAVYYCARRGRRYRQYSRYYYWGQGTQVTVSS | high polyreactivity
QVQLVESGGGLVQAGGSLRLSCAASGIIFDLYTKGWYRQAPGKEREFVATINWGGGNTYYADSVKGRFTISRDNAKNTVYLQMNSLKPDDTAVYYCAAAYTWYGYSQAYYYWGQGSQVTVSS | low polyreactivity
QVQLVESGGGLVQAGGSLRLTCAASGRIFYYYAMAWYRQAPGKEMELVAAIRRGGFTYYADSVKGRFTISRDNAKNTVYLQMYSLKQEDTAVYYCAAGVSKPNGYYYLRGYERGYWGQGTQVTVSS | high polyreactivity
QVQLVESGGGLVQAGGSLRLSCAASGSTLYYYAMGWYRQAPGKERELVATITNGGSTNYADSVKGRFTISRYNAKNTVYLQMNSLKPEDTAVYYCNARRGYWGSNYWGEGTQVTVSS | high polyreactivity
QVQLVESGGGLVQAGGSLRLSCAASGSIFEGNGMGWYRQAPGKERELVAAITFRSGSTYYADSVKGRFTISRDNAKNTVYLQMNSLKPEDTAVYYCAADEYYEVSAYDYWGQGTQVTVSS | low polyreactivity
QVQLVESGGGLVQAGGSLRLSCAGSGSTFVVYSIGWYRQAPGKERELVAAITRGGGSTYYAYSVKGRFTISRDNAKNTVYLLMNSLKPEDTAVYYCAAYQLPGLRTSFEYWGQGTQVTVSS | low polyreactivity
QVQLVESGGGLVQAGGSLRLSCAASGSIFEYYVMGWYRQAPGKERELVAAISYSGDSTYYADSVKGRFTISRDNAKNTVYLQMNSLKPEDTAVYYCAAQYTRVIPPGYDYWGQGTQVTVSS | high polyreactivity
QVQLVESGGGLVQAGGSLRLSCAASGSTFSRNAMGWYRQAPGKERELVAAISYRGGSTYYADSVKGRFTISRDNAKNTVYLQMNSLKPEDTAVYYCNADVGWRAPDYGGYDYWGQGTQVTVSS | high polyreactivity
QVQLVESGGGLVQAGGSLRLSCAASGSTFRYYAMGWYRQAPGKERELVAAITTSGSRTYYADSVKGRFTISRDNAKNTVYLQMNSLKPEDTAVYYCAKDGWRYSQSLDWYRFGYWGQGTQVTVSS | high polyreactivity
QVQLVESGGGLVQAGGSLRLSCAASGSIFLRYAMGWYRQAPGKERELVAAITTGGGSTYYADSVKGRFTISRDNAKNTVYLQMNSLKPEDTAVYYCAARIRQNPGGDNSWGQGTQVTVSS | low polyreactivity
QVQLVESGGGLVQAGGSLRLSCAASGFIIDSNAMGWYRQAPGKERELVAAIDYSGGSTYYADSVKGRFTISRDNAKNTVYLQMNSLKPEDTAFYYCAAEYHGYRYNYYPYSHYFIYEYWGQGTQVTVSS | high polyreactivity
QVQLVESGGGLVQAGGSLRLSCAASGRIFGYNAMGWYRPAPGKEREVVAAISWNGGSTYYADSVKGRFTISRDNAKNTVYLQMNSLKPEDTAVYYCNADPSDRRYPHTWTKMGYWGQGTQVTVSS | low polyreactivity
QVQLVESGGGLVQAGGSLRLSCAASGRIFDEYAMGWYRQAPGKERELVAAITSDGTTNYADSVKGRFTISRDNAKNTVYLQMNSLKPEDTAVYYCNAARPQSEPASQLDLYGYDYWGQGTQVTVSS | low polyreactivity
QVQLVESGGGLVQEGGSLRLSCAASGRILYGYAMGWYRQAPGKERELVASITSSGGSKYADSVKGRFTISRDNAKNTVYLQMNSLKPEDTAVYYGATRRGPKWQWLTYGYWGQGTQVTVSS | low polyreactivity
QVQLVESGGGLVQAGGSLRLSCAASGYTFGYNAMGWYRQAPGKERELVAAISWNAGSTYYADSVKGRFTISRDNAKNTVYLQMNSLKPEDTAVYYCATEGTYIYNYWGQGTQVTVSS | low polyreactivity
QDQLVESGGGLVQAGGSLRLSCAASGRTFTVYAMGWYRPAPGKEREMVAAISRSGGRTYYADSVKGRFTISRDNAMNTVYLQRNSLKPEDTAVYYCAADVPYRTNDFDYWGQGTQVTVSS | high polyreactivity
QVQLVESGGGLVQAGGSLRLSCADSGFTFVEYAMGWYRQAPGKERELVAAITRSGTRTYYADSVKGRFTISRDNAKNTVYLQMNSLKPEDTAVYYCNKPYSKTNHYDSWGQGTQVTVSS | high polyreactivity
QVQLEESGGGLVQAGGSLRLICAASGRTFSGNTMGWYIQAPGKERELVAAITGRGGSTYYADSEKGRFTISRDNEKNTVYLQMNSLKPVDTAVYYCAALRYTFAGRFDYWGQGTQVTVSS | high polyreactivity
QVHLVESGGGLVQAGGSLRLSCAASGSTFFIYTMGWYRQAPGKEREFVAAISWTGGRTYYADSVKGRFTISRDNAKNTVFLQMNSLKPEDTAVYYCAARYKYYSYDYWGQGTQVTVSS | high polyreactivity
QVQLVESGGGIVQAGGSLRLSCAASGRTFTVYAMGWYRQARGTARELVAAINYSVGSTYYADSVKGRFTISRDNAKNTVYLQMNSLNPEDTAVYYCAADLYHFSYSNSYIRYDYWGQGTQVTVSS | low polyreactivity
QVQLVESGRGLVQAGGSLRLSCAASGSTFNINAMGWYRQAPGKERELVAAISWSGDITYYADSVKGRFTISRDNAKNTVYLQMNSLKPEDTAVYYCNTDDPGNYWYAEYDYWGQGTQVTVSS | low polyreactivity
